Assay results as given in PMC3433420, “Comprehensive Binary Interaction Mapping of SH2 Domains via Fluorescence Polarization Reveals Novel Functional Diversification of ErbB Receptors” (PLoS ONE, 2012).
Where “and” joins values, the source holds several entries; their conditions need not be identical. Equal entries are not always repeated. Non-standard residues stand in square brackets, D forms with d. No end group written: not given here. pY = N[C@@H](Cc1ccc(OP(=O)(O)O)cc1)C(=O)O; Rhodamine = not defined here

Tests used:
Test in all cases: peptide or protein array; SH2/PTB proteins spotted on aldehyde slides, rhodamine peptide titrated in buffer B (20 mM HEPES, 100 mM KCl, 0.1% Tween-20, 5 mM DTT, pH 7.8), 1 h at room temperature; replicate assays
Conditions in all cases: both partners purified
[1] = target: T1, PIK3R2 tandem SH2 domains (human, UniProt O00459 1-728)
T1 construct: PIK3R2, human; also called PIK3R2-NC; source: bacterial expression, purified
T1 sequence (O00459 whole entry, the tested form may be a part): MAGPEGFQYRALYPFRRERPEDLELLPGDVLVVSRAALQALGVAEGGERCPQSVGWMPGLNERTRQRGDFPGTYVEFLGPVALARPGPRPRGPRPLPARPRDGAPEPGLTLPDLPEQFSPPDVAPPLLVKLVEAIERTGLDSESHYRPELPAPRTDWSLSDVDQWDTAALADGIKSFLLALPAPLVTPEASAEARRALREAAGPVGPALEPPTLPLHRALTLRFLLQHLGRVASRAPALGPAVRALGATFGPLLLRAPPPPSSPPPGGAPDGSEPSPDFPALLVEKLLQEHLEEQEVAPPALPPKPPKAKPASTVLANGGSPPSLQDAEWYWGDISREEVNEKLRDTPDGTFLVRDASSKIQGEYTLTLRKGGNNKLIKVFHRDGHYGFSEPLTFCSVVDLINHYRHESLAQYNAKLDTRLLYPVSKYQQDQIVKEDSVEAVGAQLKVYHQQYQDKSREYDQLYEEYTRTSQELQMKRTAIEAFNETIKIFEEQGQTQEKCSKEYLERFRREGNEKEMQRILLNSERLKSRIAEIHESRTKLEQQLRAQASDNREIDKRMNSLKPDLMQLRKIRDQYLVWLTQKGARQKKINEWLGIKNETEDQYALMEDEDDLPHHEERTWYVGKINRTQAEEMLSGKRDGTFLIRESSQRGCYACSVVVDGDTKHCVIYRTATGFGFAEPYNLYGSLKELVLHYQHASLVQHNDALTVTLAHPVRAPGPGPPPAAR

GRAP2 SH2 domain = target: T2, GRAP2 SH2 domain (human, UniProt O75791 58-149)
T2 construct: GRAP2, human; source: bacterial expression, purified
T2 sequence (looked up): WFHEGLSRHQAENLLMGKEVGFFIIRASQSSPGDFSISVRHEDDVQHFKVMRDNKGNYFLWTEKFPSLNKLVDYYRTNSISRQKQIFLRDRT

GRB10 SH2 domain = target: T3, GRB10 SH2 domain (human, UniProt Q13322 493-574)
T3 construct: GRB10, human; source: bacterial expression, purified
T3 sequence (looked up): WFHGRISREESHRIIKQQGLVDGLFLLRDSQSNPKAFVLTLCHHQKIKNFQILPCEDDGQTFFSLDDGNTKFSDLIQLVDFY

SH2D1B SH2 domain = target: T4, SH2D1B SH2 domain (human, UniProt O14796 5-101)
T4 construct: SH2D1B, human; source: bacterial expression, purified
T4 sequence (looked up): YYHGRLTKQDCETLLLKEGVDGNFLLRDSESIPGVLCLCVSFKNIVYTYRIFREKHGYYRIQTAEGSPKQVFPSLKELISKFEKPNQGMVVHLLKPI

[2] = target: T5, SYK C-terminal SH2 domain (human)
T5 construct: SYK, human; source: bacterial expression, purified

BLNK SH2 domain = target: T6, BLNK SH2 domain (human, UniProt Q8WV28 346-453)
T6 construct: BLNK, human; source: bacterial expression, purified
T6 sequence (looked up): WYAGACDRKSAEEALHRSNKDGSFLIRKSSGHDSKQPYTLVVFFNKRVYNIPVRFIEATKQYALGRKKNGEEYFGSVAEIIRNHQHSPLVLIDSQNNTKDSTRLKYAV

GRB7 SH2 domain = target: T7, GRB7 SH2 domain (human, UniProt Q14451 431-527)
T7 construct: GRB7, human; source: bacterial expression, purified
T7 sequence (Q14451 431-527): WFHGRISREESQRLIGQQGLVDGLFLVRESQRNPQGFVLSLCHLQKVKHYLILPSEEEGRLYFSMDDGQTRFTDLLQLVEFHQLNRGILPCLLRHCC

SH3BP2 SH2 domain = target: T8, SH3BP2 SH2 domain (human, UniProt P78314 457-555)
T8 construct: SH3BP2, human; source: bacterial expression, purified
T8 sequence (looked up): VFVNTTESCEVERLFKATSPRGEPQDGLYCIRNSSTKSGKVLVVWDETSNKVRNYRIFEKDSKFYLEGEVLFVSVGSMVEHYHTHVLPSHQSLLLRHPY

SHF SH2 domain = target: T9, SHF SH2 domain (human, UniProt Q7M4L6 323-418)
T9 construct: SHF, human; source: bacterial expression, purified
T9 sequence (looked up): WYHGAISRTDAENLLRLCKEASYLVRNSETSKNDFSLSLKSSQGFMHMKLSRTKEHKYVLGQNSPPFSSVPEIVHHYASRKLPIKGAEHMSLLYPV

SOCS6 SH2 domain = target: T10, SOCS6 SH2 domain (human, UniProt O14544 384-491)
T10 construct: SOCS6, human; source: bacterial expression, purified
T10 sequence (looked up): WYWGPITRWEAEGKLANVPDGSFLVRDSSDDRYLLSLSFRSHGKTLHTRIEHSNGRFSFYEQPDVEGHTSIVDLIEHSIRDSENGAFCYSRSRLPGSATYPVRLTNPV

[3] = target: T11, PIK3R3 C-terminal SH2 domain (human)
T11 construct: PIK3R3, human; source: bacterial expression, purified

B1: ErbB2 pY1127 phosphopeptide, rhodamine-labelled, for protein microarrays (peptide)
chain: Rhodamine-ETDG[pY]VAPLTCSD
modifications: reading uncertain
Kd [1]: 10.6 nM and 4.66 nM
Kd (GRAP2 SH2 domain): 19400 nM
Kd (GRB10 SH2 domain): 1900 nM and 2340 nM
Kd (SH2D1B SH2 domain): 2280 nM
Kd [2]: 1920 nM and 2390 nM
Kd (BLNK SH2 domain): 1950 nM and 1250 nM
Kd (GRB7 SH2 domain): 1600 nM and 2530 nM
Kd (SH3BP2 SH2 domain): 1140 nM and 2860 nM
Kd (SHF SH2 domain): 1020 nM
Kd (SOCS6 SH2 domain): 8930 nM and 5200 nM
Kd [3]: 2040 nM and 1210 nM
